Holding throughout (format): biochemical
Series [1] has as its system gapped-duplex calf thymus DNA. The series is described as follows: DNA polymerase activity, gapped-duplex calf thymus DNA assay. On the procedure: Initially and as a control to confirm the activity of the DNA polymerase used, gapped-duplex calf thymus DNA (Pharmacia) assays were performed. The polymerase cocktail contained 50 mM Tris-HCl, pH 8.0, 5 mM MgCl2, 1 mM DTT, 50 μg/m BSA, 4% glycerol, 200 μM each dNTP, [^3H]TTP (0.5 mCi·μmole final concentration), and 250 μg/ml of activated calf thymus DNA (Pharmacia). Samples containing Pfu DNA polymerase or P. furiosus PEF were serially diluted in Pfu DNA polymerase storage buffer (50 mM Tris-HCl, pH 8.2, 0.1% NP-40, 0.1% Tween-20, 0.1 mM EDTA, 1 mM DTT, 50% glycerol) and then 1 μl of each dilution was added to 10 μl aliquots of polymerase cocktail. Polymerization reactions were conducted in triplicate for 30 minutes at 72° C. The extension reactions were quenched on ice, and then 5 μl aliquots were spotted immediately onto DE81 filters (Whatman). Unincorporated [^3H]TTP was removed by 6 washes with 2×SCC (0.3M NaCl, 30 mM sodium citrate, pH 7.0), followed by one wash with 100% ethanol. Incorporated radioactivity was measured by scintillation counting. The assay was calibrated by counting a known amount of [^3H]TTP on DE-81 filters, omitting the wash steps. One unit of polymerase activity is defined as the amount of enzyme which catalyzes the incorporation of 10 nmoles of total dNTP into polymeric form (binds to DE-81 paper) in 30 minutes at 72° C. […]

Series [2] is described as follows: Reverse phase HPLC analysis of dCTP conversion. Here is the method:
The similarity of P45 to dCTP deaminases prompted us to test whether dCTP or other nucleotide triphosphates were substrates of PEF/P45. PEF was incubated with dCTP or dUTP and the reaction products were separated by reverse phase HPLC. Reaction mixtures (50 μl) containing 1× cloned Pfu polymerase buffer, 10 mM dCTP or dUTP, and 700 ng PEF (or 5 μl of cloned p45 (˜100 ng) or nothing (neg. control)) were incubated at 72° C. for 1 hour. The samples were injected on a […] Waters Delta-pak C-18 column (300 angstrom/15 μm), equilibrated in 50 mM triethylammonium acetate, pH (7.0) (A). Products were eluted with acetonitrile (B) at 2 ml/min. using the following gradient: 0% B for 5 minutes, 0-10% B over 20 minutes. Absorbence of the eluate was monitored with a photodiode array detector, and peak areas were integrated at 260 nm.

Series [3] in a line: PCR cycling of dCTP in the presence of PEF or Pfu DNA polymerase, HPLC. Conditions: 10 mM dCTP, 0.5 ng PEF/μl.
The next series addresses T1, Pfu DNA polymerase (Pyrococcus furiosus, UniProt P61875).
T1 sequence (P61875 1-775): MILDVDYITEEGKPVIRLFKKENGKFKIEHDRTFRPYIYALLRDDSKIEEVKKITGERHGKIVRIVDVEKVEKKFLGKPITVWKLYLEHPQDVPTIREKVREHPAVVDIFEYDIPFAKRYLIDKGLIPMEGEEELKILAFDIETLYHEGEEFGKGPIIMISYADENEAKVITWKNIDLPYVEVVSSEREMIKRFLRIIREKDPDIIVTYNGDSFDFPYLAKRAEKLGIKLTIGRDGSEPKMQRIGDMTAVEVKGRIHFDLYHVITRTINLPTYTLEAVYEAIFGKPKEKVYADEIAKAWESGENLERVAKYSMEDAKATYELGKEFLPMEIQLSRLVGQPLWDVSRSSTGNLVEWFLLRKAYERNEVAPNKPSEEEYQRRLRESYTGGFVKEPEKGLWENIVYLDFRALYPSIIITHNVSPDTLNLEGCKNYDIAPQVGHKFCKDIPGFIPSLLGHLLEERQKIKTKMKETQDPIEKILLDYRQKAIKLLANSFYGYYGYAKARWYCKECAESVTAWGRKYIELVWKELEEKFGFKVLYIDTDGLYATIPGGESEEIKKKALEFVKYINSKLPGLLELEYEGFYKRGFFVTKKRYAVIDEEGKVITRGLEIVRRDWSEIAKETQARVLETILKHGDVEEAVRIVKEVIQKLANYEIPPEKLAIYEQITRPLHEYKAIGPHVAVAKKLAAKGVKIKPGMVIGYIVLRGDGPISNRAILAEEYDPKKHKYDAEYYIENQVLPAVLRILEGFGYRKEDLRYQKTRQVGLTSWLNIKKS
Nature of the series: 0.9 kb α1-antitrypsin PCR in absence or presence of dUTP. Here is the method:
A relatively small (0.9 kb) fragment of the human α1-antitrypsin gene was amplified in the absence or presence of dUTP. PCR reaction mixtures contained the following (in a 100 μl volume): 1× Cloned Pfu polymerase buffer; 200 μM each, dCTP, dGTP, dATP; 200 ng oligo F91-23 (100 ng/μl); 200 ng oligo R980-23 (100 ng/μl); 125 ng Human genomic DNA; 2.5 units Pfu DNA polymerase; 200 μM total of (dTTP and dUTP) or (dTTP+PEF generated dUMP).
PCR cycling was carried out as follows: 95° C. for 1 minute (1 cycle); 95° C. for 1 minute—58° C. for 1 minute—72° C. for 2 minutes (30 cycles).
Seven ng of PEF can reverse the inhibition caused by as much as 20 μM dUTP (data not shown). The preferred amount of PEF or P45 used in a particular reaction can be optimized according to the principles provided here or by methods for quantifying amplification reactions known in the art.

Series [4] can be described thus: Pi detection after reaction with dUTP (method of Heinonen and Lahti). Conditions: 900 or 1800 ng PEF, 5 mM dUTP, 1 hour at 72° C. On the procedure:
We tested whether inorganic pyrophosphate (PPi) or inorganic phosphate (Pi) was generated during the PEF-catalyzed conversion of dUTP to dUMP (FIG. 16). To assess whether Pi was produced, 900 or 1800 ng of PEF was incubated in the presence of 5 mM dUTP in 1× cloned Pfu polymerase buffer for 1 hour at 72° C. The reaction mixture was subsequently analyzed for the presence of Pi using the method of Heinonen and Lahti (Heinonen; J. K. and Lahti, R. J. (1981) Anal. Biochem. 113: 313-317). […] One hundred percent (100%) conversion corresponds to the production of 500 nmol of Pi, if Pi is a product of the reaction. […] The assay for Pi was sensitive enough to detect as little as about 50 nmoles of Pi.

B1: PEF: polymerase enhancing factor complex purified from Pyrococcus furiosus; predominant components P50 and P45 (protein)
chain 1: MLHHVKLIYATKSRKLVGKKIVXXXPGSIAALDVKACEGLIRHGAEVHAVMSEAATKIIHPYAWNLPTGNPVITEITGFIEHVELAGEHENKADLILVCPATANTISKIACGIDDTPVTTVVTTAFPHIPIMIAPAMHETMYRHPIVRENIERLKKLGVEFIGPRIEEGRAKVASIDEIVYRVIKKLHKKTLEGKRVLVTAGATREYIDPIRFITNASSGKMGVALAEEADFRGAVTLIRTKGSVKAFRIRKIKLKVETVEEMLSAIENELRSKKYDVVIMAAAVSDFRPKIKAEGKIKSGRSITIELVPXNPKIIDRIKEIQPNVFLVGFKAETSKEKLIEEGKRQIERAKADLVVGNTLEAFGSEENQVVLIGRDFTKELPKMKKRELAERIWDEIEKXLS
chain 2: MLLPDWKIRKEILIEPFSEESLQPAGYDLRVGREAFVKGKLIDVEKEGKVVIPPREYALILTLERIKLPDDVMGDMKIRSSLAREGVIGSFAWVDPGWDGNLTLMLYNASNEPVELRYGERFVQIAFIRLEGPARNPYRGNYQGSTRLAFSKRKKL
modifications: not fully specified; X: residue not identified in the source
notes: polymerase enhancing factor complex purified from Pyrococcus furiosus; predominant components P50 and P45
With B1, the “DNA polymerase activity (in words)” value in series [1] is reported as “no significant DNA polymerase activity”. For the same molecule, in series [2], the “deamination of dCTP” value is “No deamination”. Also, the dCTP converted in series [2] (1 hour, 72° C., 700 ng PEF) was determined as 16.6%. Also, in series [3], the “dCDP after PCR cycling in presence of PEF” value is reported as 19%, the “dCMP after PCR cycling in presence of PEF” value is given as 8%, the “dCTP after PCR cycling in presence of PEF” value was 73% and the “dUTP after PCR cycling in presence of PEF” value is “no detectable dUTP”. In the series with Pfu DNA polymerase (added to PCR reactions containing dUTP), the “prevention of dUTP inhibition” value is given as “completely prevented”. In addition, in the series with Pfu DNA polymerase (seven ng of PEF, as much as, data not shown), the “dUTP concentration whose inhibition is reversed” value is 20 µM. Moreover, the “Pi formed during reaction with dUTP” value in series [4] is “no Pi was detected”.

For the origin of these results see patent publication US7943358B2, “Polymerase enhancing factor (PEF) extracts, PEF protein complexes, isolated PEF protein, and methods for purifying and identifying” (Agilent Technologies, Inc., priority 1997, dated 2011).
